Experimental findings from patent US20240093191A1, “COMPOSITIONS AND METHODS FOR TREATING DISEASE ASSOCIATED WITH DUX4 OVEREXPRESSION” (RESEARCH INSTITUTE AT NATIONWIDE CHILDREN'S HOSPITAL, priority 2021, published 2024) are described below.

Data set [1] concerns DUX4-FL (DUX4 ORF + 3'UTR, RenLuc-DUX4-FL). As to the kind of experiment: Dual-luciferase assay, RenLuc-DUX4-FL reporter co-transfected with miRNA plasmids in HEK293 cells. Format: cell-based, human. The text has this: FIG. 1A. Dual-luciferase assay to test the ability of U6.mir-675 to target DUX4. Shown here is the mir-675 expression plasmid used in this study. In this construct, the RNA polymerase III U6 promoter (U6p) controls the expression of mir-675. A terminal signal formed of a stretch of six T nucleotides allows the termination of transcription. On the right, the secondary structure of the mir-675 along with its 5′ and 3′ end flanking sequences (Boxed) is shown. At the 5′ end, the flanking sequence is of 40 nucleotides long and at the 3′ end, the flanking sequence is of 47 nucleotides long starting from the nucleotide at position 114. U6.mir-675 was tested to target DUX4 using the dual-luciferase assay. To do this, DUX4 was cloned in the RenLuc-DUX4-FL expression plasmid (FIG. 1A), i.e., DUX4-FL (DUX4 ORF without V5 tag+3′UTR) was PCR amplified using CMV.DUX4-FLΔV5 as template with the following primers: forward: 5′ […] 3′ (SEQ ID NO: 125), reverse: 5′ […] 3′ (SEQ ID NO: 126). The PCR product was then cloned into a previously designed RenLuc SD5 mutant plasmid using XhoI/SpeI restriction sites and the RenLuc.SD5 mutant-DUX4 3′UTR plasmid backbone. The Renilla luciferase gene has a splicing donor mutation (*SID5) that prevents the alternative splicing of the DUX4-FL mRNA (Ansseau et al. (2015) PLoS One, 10, e0118813). The dual-luciferase assay was performed by co-transfecting the RenLuc-DUX4-FL and U6.mir-675 expression plasmids into the human embryonic kidney HEK293 cells. 48 hours after transfection, both the Renilla and Firefly luciferase activities were measured. The latter was used to normalize for Renilla luciferase activity. The non-targeting RenLuc control backbone plasmid (RenLuc) was co-transfected with U6.mir-675 and the RenLuc-DUX4-FL co-transfected with U6.milacZ as negative control reactions. In the other reactions, mir-675 reduced the relative Renilla luciferase activity by 24±3% (P<0.0001, ANOVA, N=3), 28±2% (P<0.0001, ANOVA, N=3) and 33±3% (P<0.0001, ANOVA, N=3) at a molarity ratio U6.mir-675: RenLuc-DUX4-FL (n:n) of 10 to 1, 20 to 1 and 40 to 1, respectively. All readings were normalized to the U6.milacZ (negative control). Six replicate data were averaged per experiment and individual experiments were performed in triplicate (N=3). Results were reported as the average relative Renilla luciferase activity±SEM for all combined experiments. […] A representative western blot gel and the quantification results of three independent western blot replicates (N=3) performed on 15 μg of total protein extracts collected from HEK293 cells 24 hours after co-transfection with the AAV.CMV.DUX4-FL and the U6.mir-675 or the human long non-coding H19 expression plasmid (CMV.H19) is shown here. […]

A further data set has as its system DUX4 mRNA. As to the kind of experiment: QPCR (SYBR green) of DUX4 mRNA in co-transfected HEK293 cells. Format: cell-based, human. As to conditions: 3 to 1 ratio with DUX4 construct, normalized to egfp, relative to milacZ. On the procedure:
H1.mir-675 construct was transfected in a 3 to 1 ratio with DUX4 construct in HEK293 cells, and collected RNA extracts 24 and 48h after transfection. Total RNA was prepared using the miRVANA isolation kit. DUX4 and egfp (used as the reference gene) mRNA levels were determined using the SYBR green master mix as described in materials and methods. All values were normalized to egfp, and were reported relative to milacZ treated samples. At 24 and 48h after transfection, DUX4 levels decreased by an average of 37±2% (P<0.0001, ANOVA, N=3) and 51±2% (P<0.0001, ANOVA, N=3), respectively. Results were reported as the average relative DUX4 expression±SEM of three replicates. […] When compared to the milacZ sample, mir-675-5p overexpressed levels were ˜2000-fold higher (P<0.0001, ANOVA, N=3). Results were reported as the average relative mir-675-5p expression (2^−ΔCq)±SEM of three replicates.

B1: U6.mir-675: U6 promoter-driven mir-675 expression plasmid with 40 nt 5' and 47 nt 3' flanking sequences (nucleic acid)
DNA: GACGCCGCCATCTCTAGGCCCGCGCCGGCCCCCTCGCACAGACTTGTGGGAGAAGCTCGGCTACTCCCCTGCCCCGGTTAATTTGCATATAATATTTCCTAGTAACTATAGAGGCTTAATGTGCGATAAAAGACAGATAATCTGTTCTTTTTAATACTAGCTACATTTTACATGATAGGCTTGGATTTCTATAAGAGATACAAATACTAAATTATTATTTTAAAAAACAGCACAAAAGGAAACTCACCCTAACTGTAAAGTAATTGTGTGTTTTGAGACTATAAATATCCCTTGGAGAAAAGCCTTGTTTGCGTTTAGTGAACCGTCAGATGGTACCGTTTAAACTCGAGCCCAGGGTCTGGTGCGGAGAGGGCCCACAGTGGACTTGGTGACGCTGTATGCCCTCACCGCTCAGCCCCTGGGACTAGAGCGGCCGCCACAGCGGGGAGATCCAGACATGATAAGATACATTTTTT
With B1, the “reduction of relative Renilla luciferase activity” value in data set [1] (miRNA:RenLuc-DUX4-FL molar ratio 10 to 1, 48 h, normalized to U6.milacZ) is 24±3%; in data set [1] (miRNA:RenLuc-DUX4-FL molar ratio 20 to 1, 48 h, normalized to U6.milacZ) it was 28±2%; in data set [1] (miRNA:RenLuc-DUX4-FL molar ratio 40 to 1, normalized to milacZ), 33±3%.

B2: H1.mir-675: commercially available H1 promoter mir-675 expression plasmid (SBI Biosciences) (nucleic acid)
DNA: GAACGCTGACGTCATCAACCCGCTCCAAGGAATCGCGGGCCCAGTGTCACTAGGCGGGAACACCCAGCGCGCGTGCGCCCTGGCAGGAAGATGGCTGTGAGGGACAGGGGAGTGGCGCCCTGCAATATTTGCATGTCGCTATGTGTTCTGGGAAATCACCATAAACGTGAAATGTCTTTGGATTTGGGAATCTTATAAGTTCTGTATGAGACCACCCCCCAGGGTCTGGTGCGGAGAGGGCCCACAGTGGACTTGGTGACGCTGTATGCCCTCACCGCTCAGCCCCTGGGGAATTCTTCGATTCTGCTTTTTT
Take B2: the entries for the “decrease of DUX4 mRNA levels” value with DUX4 mRNA (24 h) and in the data set with DUX4 mRNA (48 h) were 37±2% and 51±2%, respectively.
